Target: Recombinant human Rac1 (Q2-L177) (human, UniProt P63000 2-177)
Experiment: AlphaScreen or HTRF; 30 nM His-Rac1 pre-incubated with compound 30 min at room temperature, then 300 nM FLAG-Tiam1, 2 nM anti-His-Eu3+, 20 nM anti-FLAG-XL665; 50 mM Hepes pH 7.6, 100 mM NaCl, 1 mM DTT, 10 mM MgCl2, 0.1% Nonidet P-40; titration of NSC23766, DW0069 or DW0254
Details: both partners purified

binding result: binds
B1: Truncated recombinant human Tiam1 (R1033-E1406) (domain or fragment)
chain: RQLSDADKLRKVICELLETERTYVKDLNCLMERYLKPLQKETFLTQDELDVLFGNLTEMVEFQVEFLKTLEDGVRLVPDLEKLEKVDQFKKVLFSLGGSFLYYADRFKLYSAFCASHTKVPKVLVKAKTDTAFKAFLDAQNPKQQHSSTLESYLIKPIQRILKYPLLLRELFALTDAESEEHYHLDVAIKTMNKVASHINEMQKIHEEFGAVFDQLIAEQTGEKKEVADLSMGDLLLHTTVIWLNPPASLGKWKKEPELAAFVFKTAVVLVYKDGSKQKKKLVGSHRLSIYEDWDPFRFRHMIPTEALQVRALASADAEANAVCEIVHVKSESEGRPERVFHLCCSSPESRKDFLKAVHSILRDKHRRQLLKTE
notes: human Tiam1, residues R1033-E1406, pTriIJ-HV vector; also called FLAG-tagged Tiam1; not shown: FLAG, N-terminal, kept
